Measured values reported in patent US20110130457A1, “Wax-Based Emulsion for the Treatment of Dry Eye Conditions” (UNIVERSITY OF LOUISVILLE RESEARCH FOUNDATION, INC., priority 2008, published 2011).

Assays:
[1] = target: T1, β-lactoglobulin (Bos taurus, UniProt P02754); assay: Wax-lactoglobulin binding by intrinsic tryptophan fluorescence intensity and anisotropy
T1 sequence (P02754 17-178): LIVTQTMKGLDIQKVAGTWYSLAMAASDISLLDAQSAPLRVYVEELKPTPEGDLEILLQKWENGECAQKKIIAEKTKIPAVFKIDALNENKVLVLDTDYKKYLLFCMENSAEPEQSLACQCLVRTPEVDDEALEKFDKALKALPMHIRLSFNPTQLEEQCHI
Description: Changes in protein concentration alone are unlikely to affect the rate of evaporation of tears. […] (See Pandit J. C., Nagyova B., Bron A. J., et al, Physical properties of stimulated and unstimulated tears. Exp Eye Res. 1999; 68:247-253.) In this embodiment of the present invention, wax interacted with lactoglobulin. Wax-lactoglobulin binding was quantified by measuring changes in the intrinsic fluorescence intensity of tryptophan. Tryptophan fluorescence is sensitive to local changes in electrostatic fields. Therefore, variations in the local environment/polarity of tryptophan leads to changes in its fluorescence properties as described by Vivian and Callis. Vivian J. T., Callis P. R., Mechanisms of tryptophan fluorescence shifts in proteins, Biophys. J. 2001; 80:2093-2109.) Substrate binding and protein structural changes are commonly measured by observing changes in tryptophan fluorescence intensity, wavelength maximum, band shape, anisotropy, fluorescence lifetimes, and energy transfer.
A wax emulsion that is stable for at least 4 weeks was prepared as described previously by the inventors. […] A quantified amount of wax (0.156 to 1.25 μL/mL) was mixed with 1 mg/mL lactoglobulin in phosphate buffered saline and equilibrated for 12 hours at 34° C. under an atmosphere of argon. […] Emission spectra were measured from 300 to 400 nm with an excitation wavelength of 270 nm. […]

[2] = Evaporation rates measured in vitro (gravimetric); assay type: physicochemical; settings: for Influence on the rate of evaporation: concentrations of 50 to 100 mg/mL, at 25 or 34° C.
Method: Samples (0.750 mL) for evaporation rate measurements were placed into a plastic container 0.8 cm deep and 1.500 cm inside diameter. Temperature and relative humidity were recorded at the start and end of each experiment. Samples were weighed every minute for 10 minutes using a Mettler-Toledo AT261 analytical balance (Columbus, Ohio). The balance was calibrated and certified by a Mettler technician prior to use. The weights of as many as 7 samples were measured sequentially, i.e., after measuring the weights of sample 1 for ten minutes, the weights of sample 2 were measured for ten minutes, followed by the next sample. The weights of four 10 minute weighing sequences were plotted versus time and the rate of evaporation was calculated from the slope of the data in the plots that were fitted using least squares linear regression analysis. The rate of evaporation at 34° C. was measured using four, 3-minute weighing sequences instead of ten.
The rate of evaporation with 20 standard cubic feet per minute (SCFM) of dry air flowing over the sample at 24° C. was measured. Air was completely dried using a Keaser desiccant dry, model KLDW-10S (Columbus, Ohio) attached to a Purimetrics Compressor, model 750-2 (Edina, Minn.) and a 80 gallon air receiver tank. Complete removal of water vapor from the air was confirmed using an infrared spectrometer. The sample was placed under a flow of dry air for 1 minute and removed from the dry air for two minutes and weighed in a Mettler-Toledo analytical balance. This cycle was repeated ten times. The rate of evaporation in dry air was calculated from the total rate of evaporation minus the contribution of the evaporation in the room air. Evaporation rate was expressed as μm/min, the rate of thickness lost at the surface per minute. Changes in the thickness of the tear film (˜5 μm) due to evaporation can be estimated readily by expressing the evaporation rate in μm/min.

[3] = 50 mg/mL, 24.8° C., relative humidity 40.6%
[4] = 100 mg/mL, 24.8° C., relative humidity 40.6%

Compound	Fluorescence intensity of the tryptophan residues in lactoglobulin ([1]; as little as 20 nmoles (~0.1 μg) wax added to 1 mg β-lactoglobulin in 1 ml phosphate buffered saline)	Tryptophan anisotropy of lactoglobulin ([1]; with the addition of wax, n=6, 0.138±0.009 with no wax, p=0.04, SEM)	Rate of Evaporation [2, 3] [μm/min]	Rate of Evaporation [2, 4] [μm/min]	Influence on the rate of evaporation [2]	Rate of Evaporation ([2]; 100 mg/mL, 34° C.) [μm/min]
CCCCCCCC/C=C\CCCCCCCC(=O)OCCCCCCCCCCCCCCCC [palmityloleate wax, palmityloleate]	caused a decrease in the fluorescence intensity	0.115±0.004	–	–	–	–
Lysozyme	–	–	3.0	3.0	did not significantly influence the rate of evaporation	–
Mucin	–	–	2.9	3.0	did not significantly influence the rate of evaporation	–
β-Lactoglobulin: model tear protein, used as a model for lipocalin	–	–	3.08	3.12	did not significantly influence the rate of evaporation	9.1
